Here are results for 1 molecule from publication PMC7247818 (2020).

Where no end group is shown, it is not given here. [ ]: non-standard residue; d: D form. The star is where a group is joined. pY = N[C@@H](Cc1ccc(OP(=O)(O)O)cc1)C(=O)O; Dansyl = CN(C)c1cccc2c(S(=O)(=O)*)cccc12

In this assay the target is T1, Gab2 448-460 (Homo sapiens).
T1 chain: Dansyl-TNSEDN[pY]VPMNPG
Put plainly: stopped-flow FRET.

B1: PI3K p85alpha N-SH2 N-SH2 (protein)
chain: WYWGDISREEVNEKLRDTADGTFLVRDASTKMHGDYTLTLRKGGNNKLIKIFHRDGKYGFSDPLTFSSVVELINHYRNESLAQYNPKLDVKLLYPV
Consider B1, for which the affinity, expressed as Kd, was 200 nM.
